The DeepSol protein solubility set

experiment: soluble on expression in E. coli; label from the status in PepcDB or PDB records

Soluble on expression in E. coli, not soluble:
MGSDKIHHHHHHMEGKVDVLLTWLKKSDKFYIAPNISICESPETGRGIVLSHGSIRKNDIIVSVPSSKQLNFHTILYHISKFNKELNIPGITIDRKPINYEDNIIEAENKAWADPRYGLYSELSKEFLLSLSSFQLVSFYILVENFLLPKWTHNEIYSDWKPFFDVWPSMEELRSIPAIWNCDPNSRYHSLIEYLPAASRKHMARISGLVREDWETISEVVLKWNEIYGSLSCTKNSDKFTSDELFSLFVHVYFIINSRCLYAKIPLKIEDSPSNFTLVPYVDFMNHICESDLHCYPQLSPQLRSEGENIIGIGQFTIRCGDHLYDNINEELFLNYGAHSNDFLLNEYGFVVDGNKWNYLDISDEIIELIDDDKKEVKTFLLEHDYWGDYTINETDISYRIFVALNYYVTRDERRVRKFIEGYISEDYFKPKISSVLKELLVSLTAKYTKTLSELTEKVSNLENNLCLQNLITIYKGYIKILTQHLQDLQS
MGSDKIHHHHHHMEGNLKHNNGYCVICEKEATFIEHNDWLRDHYLCSTCHSIPRQRALIHVLNTFFPKWDSYHIHESSPGGITTQLLIKNCKNYTYSQYFKNYPLGQYFQGIRCENLENMTFQDESFDLFITQDVFEHVMEPNKAFKEIERVLKPGGAHVFTVPWYHTLPKTLQRARINEDGIEYIEEPIYHGNPIDENGSLVTFDWGQDMIEYIYTHANMYTLVYLQKDKSLGLDAEFLHVFISRKQENNF
MGSDKIHHHHHHMEIKILVDNTAKGKFLAQSGFSAIIKDEDSKILFDCGQNAHVFENNLKLMGEDDDFDAVIFSHGHYDHTDGFNYFIEKYGENLDVPIYIHKSAFVDRYHGERYIGIDENIKNFLKNYKNLKLIEDPFKISENLIISGTIPRTNFYERENFEMIENGQKVDDIIIDDMFVIVKDIIISGCTHSGLINCITHAKTLKEVNGIIGGFHMGTASENYINQVKNYLKTQNFRLVSPVHCTGFNATKELSDISGFKFGHVGSVFEI
MGSDKIHHHHHHMEISFTRVALLAAALFFVGCDQKPQPAKTHATEVTVLEGKTMGTFWRASIPGIDAKRSAELKEKIQTQLDADDQLLSTYKKDSALMRFNDSQSLSPWPVSEAMADIVTTSLRIGAKTDGAMDITVGPLVNLWGFGPEQQPVQIPSQEQIDAMKAKTGLQHLTVINQSHQQYLQKDLPDLYVDLSTVGEGYAADHLARLMEQEGISRYLVSVGGALNSRGMNGEGLPWRVAIQKPTDKENAVQAVVDINGHGISTSGSYRNYYELDGKRLSHVIDPQTGRPIEHNLVSVTVIAPTALEADAWDTGLMVLGPEKAKEVVRREGLAVYMITKEGDSFKTWMSPQFKSFLVSEKN
MGSDKIHHHHHHMEKGSIKILGEGFISSGEYENIKIVGSSKSKGNVKSNEVKVLGDAKFEGDINIKNFVVNGKTIIRGNLKAERVRVNGQLNIEGDAEIDDLVITAQQKVDGKLKCNNVTIRGQLSVNENMYAQDIKIYGEMRNKSNIECEDIKVYGVIKCDGLLNGENIYVYSGGGSYCKEIGATNIKIGRSKDAFSLIKIINIFSGKFKCNLIEGDTIELEDASIKDIRGKSISLVDNCDVGNIEYSDNLSVSDNSTVKNSIKVG
MGSDKIHHHHHHMEKIAVAENLRAYYFIKSGDKTTSIRAVDNVSLHFFENEVYGIAGESGCGKSTLLKVLFGEIKPPLKLVDGEVVFKLDGEEYRINSMSLDQLKKIRWKYVSYVPQGSMSVLNPVRKIRRIFLDVIEEHTSMSREEAFSRIESYFEALGLPVRVLDSYPHQLSGGMRQRVTIALATVLNPKVIFADEPTTALDVVVQRGVIQLLKKIHKEQKNTLVIVTHDMGVHAHLATRIGVMYAGRLIEEAETHEIFKNPLHPYTRFLINSLPRFGDRSRKEGTPGSPPSLANLPSGCPFHPRCPIADQICMEMEPDLIEVARNHKVACWKVGVER
MGSDKIHHHHHHMEKIVQTAGRNALGEFAPEFAHFNDDVLFGENWNNQDIDVKTRSIITVVALMASGITDSSLIYHLQNAKEHGVTQKEIAAVITHVAFYAGWPKAWAVFNLAKEVWEAGEGDLPYEEEAMRAHAKEMAFPIGAPNDGFAQYFSGRSFLAPISTSQIGIFNVTFEPGCRNNWHIHHAKSGGGQILVCVAGRGYYQEEGKEAVEMKPGDCINIPTGVKHWHGAAPDEWFSHLAIEVPGVDCSNEWCEAVSEKEYAGLR
